Experimental findings from patent US6465254, “Mutant loxP site and applications thereof” (Sumitomo Pharmaceuticals Company, Limited) are described below.

First the molecules themselves.
B1: mutant loxP #12 (dsDNA)
DNA 1: ATAACTTCGTATATTGTATGCTATACGAAGTTAT
DNA 2: ATAACTTCGTATAGCATACAATATACGAAGTTAT
B2: mutant loxP #32 (dsDNA)
DNA 1: ATAACTTCGTATAATCTATGCTATACGAAGTTAT
DNA 2: ATAACTTCGTATAGCATAGATTATACGAAGTTAT
B3: mutant loxP #23 (dsDNA)
DNA 1: ATAACTTCGTATAAGGTATGCTATACGAAGTTAT
DNA 2: ATAACTTCGTATAGCATACCTTATACGAAGTTAT
B4: mutant loxP #33 (dsDNA)
DNA 1: ATAACTTCGTATAATTTATGCTATACGAAGTTAT
DNA 2: ATAACTTCGTATAGCATAAATTATACGAAGTTAT
B5: mutant loxP #43 (dsDNA)
DNA 1: ATAACTTCGTATAATGGATGCTATACGAAGTTAT
DNA 2: ATAACTTCGTATAGCATCCATTATACGAAGTTAT
B6: mutant loxP #42 (dsDNA)
DNA 1: ATAACTTCGTATAATGAATGCTATACGAAGTTAT
DNA 2: ATAACTTCGTATAGCATTCATTATACGAAGTTAT
B7: mutant loxP #31 (dsDNA)
DNA 1: ATAACTTCGTATAATATATGCTATACGAAGTTAT
DNA 2: ATAACTTCGTATAGCATATATTATACGAAGTTAT
B8: mutant loxP #2373 (dsDNA)
DNA 1: ATAACTTCGTATAAGGTATTCTATACGAAGTTAT
DNA 2: ATAACTTCGTATAGAATACCTTATACGAAGTTAT
B9: mutant loxP #3272 (dsDNA)
DNA 1: ATAACTTCGTATAATCTATCCTATACGAAGTTAT
DNA 2: ATAACTTCGTATAGGATAGATTATACGAAGTTAT
B10: mutant loxP #3373 (dsDNA)
DNA 1: ATAACTTCGTATAATTTATTCTATACGAAGTTAT
DNA 2: ATAACTTCGTATAGAATAAATTATACGAAGTTAT
B11: mutant loxP #3372 (dsDNA)
DNA 1: ATAACTTCGTATAATTTATCCTATACGAAGTTAT
DNA 2: ATAACTTCGTATAGGATAAATTATACGAAGTTAT
B12: mutant loxP #11 (dsDNA)
DNA 1: ATAACTTCGTATAGTGTATGCTATACGAAGTTAT
DNA 2: ATAACTTCGTATAGCATACACTATACGAAGTTAT
B13: mutant loxP #21 (dsDNA)
DNA 1: ATAACTTCGTATAACGTATGCTATACGAAGTTAT
DNA 2: ATAACTTCGTATAGCATACGTTATACGAAGTTAT
B14: mutant loxP #22 (dsDNA)
DNA 1: ATAACTTCGTATAAAGTATGCTATACGAAGTTAT
DNA 2: ATAACTTCGTATAGCATACTTTATACGAAGTTAT
B15: mutant loxP #13 (dsDNA)
DNA 1: ATAACTTCGTATACTGTATGCTATACGAAGTTAT
DNA 2: ATAACTTCGTATAGCATACAGTATACGAAGTTAT
B16: mutant loxP #3171 (dsDNA)
DNA 1: ATAACTTCGTATAATATATACTATACGAAGTTAT
DNA 2: ATAACTTCGTATAGTATATATTATACGAAGTTAT
B17: mutant loxP #4371 (dsDNA)
DNA 1: ATAACTTCGTATAATGGATACTATACGAAGTTAT
DNA 2: ATAACTTCGTATAGTATCCATTATACGAAGTTAT
B18: mutant loxP #2172 (dsDNA)
DNA 1: ATAACTTCGTATAACGTATCCTATACGAAGTTAT
DNA 2: ATAACTTCGTATAGGATACGTTATACGAAGTTAT
B19: mutant loxP #4271 (dsDNA)
DNA 1: ATAACTTCGTATAATGAATACTATACGAAGTTAT
DNA 2: ATAACTTCGTATAGTATTCATTATACGAAGTTAT
B20: mutant loxP #4272 (dsDNA)
DNA 1: ATAACTTCGTATAATGAATCCTATACGAAGTTAT
DNA 2: ATAACTTCGTATAGGATTCATTATACGAAGTTAT
B21: mutant loxP #2171 (dsDNA)
DNA 1: ATAACTTCGTATAACGTATACTATACGAAGTTAT
DNA 2: ATAACTTCGTATAGTATACGTTATACGAAGTTAT
B22: mutant loxP #4372 (dsDNA)
DNA 1: ATAACTTCGTATAATGGATCCTATACGAAGTTAT
DNA 2: ATAACTTCGTATAGGATCCATTATACGAAGTTAT
B23: mutant loxP #2371 (dsDNA)
DNA 1: ATAACTTCGTATAAGGTATACTATACGAAGTTAT
DNA 2: ATAACTTCGTATAGTATACCTTATACGAAGTTAT
B24: mutant loxP #3271 (dsDNA)
DNA 1: ATAACTTCGTATAATCTATACTATACGAAGTTAT
DNA 2: ATAACTTCGTATAGTATAGATTATACGAAGTTAT
B25: mutant loxP #2273 (dsDNA)
DNA 1: ATAACTTCGTATAAAGTATTCTATACGAAGTTAT
DNA 2: ATAACTTCGTATAGAATACTTTATACGAAGTTAT
B26: mutant loxP #63 (dsDNA)
DNA 1: ATAACTTCGTATAATGTAGGCTATACGAAGTTAT
DNA 2: ATAACTTCGTATAGCCTACATTATACGAAGTTAT
B27: mutant loxP #52 (dsDNA)
DNA 1: ATAACTTCGTATAATGTTTGCTATACGAAGTTAT
DNA 2: ATAACTTCGTATAGCAAACATTATACGAAGTTAT
B28: mutant loxP #51 (dsDNA)
DNA 1: ATAACTTCGTATAATGTGTGCTATACGAAGTTAT
DNA 2: ATAACTTCGTATAGCACACATTATACGAAGTTAT
B29: mutant loxP #61 (dsDNA)
DNA 1: ATAACTTCGTATAATGTACGCTATACGAAGTTAT
DNA 2: ATAACTTCGTATAGCGTACATTATACGAAGTTAT
B30: mutant loxP #41 (dsDNA)
DNA 1: ATAACTTCGTATAATGCATGCTATACGAAGTTAT
DNA 2: ATAACTTCGTATAGCATGCATTATACGAAGTTAT
B31: mutant loxP #53 (dsDNA)
DNA 1: ATAACTTCGTATAATGTCTGCTATACGAAGTTAT
DNA 2: ATAACTTCGTATAGCAGACATTATACGAAGTTAT
B32: mutant loxP #62 (dsDNA)
DNA 1: ATAACTTCGTATAATGTAAGCTATACGAAGTTAT
DNA 2: ATAACTTCGTATAGCTTACATTATACGAAGTTAT
B33: mutant loxP #5373 (dsDNA)
DNA 1: ATAACTTCGTATAATGTCTTCTATACGAAGTTAT
DNA 2: ATAACTTCGTATAGAAGACATTATACGAAGTTAT
B34: mutant loxP #6272 (dsDNA)
DNA 1: ATAACTTCGTATAATGTAACCTATACGAAGTTAT
DNA 2: ATAACTTCGTATAGGTTACATTATACGAAGTTAT
B35: mutant loxP #5272 (dsDNA)
DNA 1: ATAACTTCGTATAATGTTTCCTATACGAAGTTAT
DNA 2: ATAACTTCGTATAGGAAACATTATACGAAGTTAT
B36: mutant loxP #6373 (dsDNA)
DNA 1: ATAACTTCGTATAATGTAGTCTATACGAAGTTAT
DNA 2: ATAACTTCGTATAGACTACATTATACGAAGTTAT

T1 sequence (P06956 whole entry, one chain of several): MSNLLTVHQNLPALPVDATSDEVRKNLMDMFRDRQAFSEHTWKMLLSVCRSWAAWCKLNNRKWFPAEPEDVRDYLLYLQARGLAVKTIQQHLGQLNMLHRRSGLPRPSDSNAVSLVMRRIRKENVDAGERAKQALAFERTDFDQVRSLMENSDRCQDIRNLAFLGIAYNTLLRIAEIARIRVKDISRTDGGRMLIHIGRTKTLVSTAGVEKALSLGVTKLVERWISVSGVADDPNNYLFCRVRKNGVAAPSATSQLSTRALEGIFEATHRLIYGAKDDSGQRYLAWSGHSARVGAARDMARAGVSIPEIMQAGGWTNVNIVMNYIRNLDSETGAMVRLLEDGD

The first data set concerns the target T1, Cre recombinase (UniProt P06956 P06956:1-343). The data set can be described thus: self x self; intermediate 6. The following applies: tags: expressed from recombinant adenovirus AxCANCre in 293 cells. As for the experimental part:
(§1) Substrate DNA (1 μg) prepared in (3) and cell extract containing Cre (10 μl) prepared in (1) were incubated at 37° C. for 30 min in a 50 μl volume of buffer containing 50 mM Tris-HCl (pH 7.5)/10 mM MgCl2/1 mg/ml bovine serum albumin/1 mM phenylmethylsulfonyl fluoride (PMSF)/5 μg/ml aprotinin. After completion of the reaction, 45 μl of TE buffer (pH 8.0) and 5 μl of EDTA solution (pH 8.0) were added to the reaction mixture, extracted with phenol/chloroform and with chloroform, followed ethanol precipitation. The recovered DNA was dissolveld in 30 μl of TE buffer (pH 8.0) containing RNase A (20 μg/ml). Half volume thereof was digested with restriction enzyme BsaHI. The DNA bands detected by ethidium bromide (EtBr) staining after agarose gel electrophoresis, were analyzed.
(§2) Before recombination mediated by Cre, restriction enzyme BsaHI digestion of linear substrate DNA (approx. 4.1 kb) generates four bands of 2.7 kb, 610 bp, 380 bp and 360 bp. On the other hand, as a result of recombination of substrate DNA mediated by Cre, a circular DNA of approx. 4.0 kb containing one mutant loxP, and a linear DNA of approx. 50 bp consisting of only mutant loxP, are produced. Digestion of these DNA with restriction enzyme BsaHI generates four bands of 2.7 kb, 920 bp, 380 bp and 50 bp (refer to FIG. 6).
In the case of B1, the activity stood at 3 grade 0-9 final product.

Consider B2, for which the activity was found to be 3 grade 0-9 final product.

Turning to B3, the activity was determined as 5 grade 0-9 final product.

For the molecule B4, the activity stood at 6 grade 0-9 final product.

A further data set has as its target T1, Cre recombinase. In words: self x self; intermediate 5. The following applies: tags: expressed from recombinant adenovirus AxCANCre in 293 cells. As for the experimental part: as §1, §2
On to B5, for which the activity worked out at 6 grade 0-9 final product.

For the molecule B6, the activity came out at 6 grade 0-9 final product.

On to B7, for which the activity turned out to be 7 grade 0-9 final product.

The target of another data set is T1, Cre recombinase. The data set can be described thus: self x self; intermediate 6. The following applies: tags: expressed from recombinant adenovirus AxCANCre in 293 cells. This is another data set of the same source.
With B8, the activity was 1 grade 0-9 final product.

On to B9, for which the activity was 2 grade 0-9 final product.

Regarding B10, the activity came to 2 grade 0-9 final product.

For B11, the activity was 1 grade 0-9 final product.

Another data set addresses T1, Cre recombinase. The data set can be described thus: self x self; intermediate 4. The settings on record: tags: expressed from recombinant adenovirus AxCANCre in 293 cells. Here is the method: as §1, §2
In the case of B12, the activity is 2 grade 0-9 final product.

In the case of B13, the activity came to 5 grade 0-9 final product.

With B14, the activity came to 5 grade 0-9 final product.

On to B15, for which the activity came out at 3 grade 0-9 final product.

A further data set addresses T1, Cre recombinase. In words: self x self; intermediate 4. The settings on record: tags: expressed from recombinant adenovirus AxCANCre in 293 cells. This is another data set of the same source.
B16: the activity turned out to be 7 grade 0-9 final product.

In the case of B17, the activity stood at 2 grade 0-9 final product.

For B18, the activity was found to be 2 grade 0-9 final product.

On to B19, for which the activity came out at 2 grade 0-9 final product.

Regarding B20, the activity came to 1 grade 0-9 final product.

The target in the next data set is T1, Cre recombinase. The data set can be described thus: self x self; intermediate 3. The settings on record: tags: expressed from recombinant adenovirus AxCANCre in 293 cells.
As to B21, the activity was found to be 3 grade 0-9 final product.

Turning to B22, the activity stood at 2 grade 0-9 final product.

B23: the activity stood at 2 grade 0-9 final product.

Consider B24, for which the activity turned out to be 4 grade 0-9 final product.

Turning to B25, the activity came to 4 grade 0-9 final product.

The next data set addresses T1, Cre recombinase. In words: self x self; intermediate 1. The following applies: tags: expressed from recombinant adenovirus AxCANCre in 293 cells. As for the experimental part: as §1, §2
On to B26, for which the activity came to 9 grade 0-9 final product.

Consider B27, for which the activity is 9 grade 0-9 final product.

Take B28: the activity came out at 9 grade 0-9 final product.

For B29, the activity turned out to be 8 grade 0-9 final product.

Turning to B30, the activity was found to be 7 grade 0-9 final product.

B31: the activity is 8 grade 0-9 final product.

For B32, the activity was determined as 8 grade 0-9 final product.

In the next data set the target is T1, Cre recombinase. In words: self x self; intermediate 1. The following applies: tags: expressed from recombinant adenovirus AxCANCre in 293 cells. The source holds these as a separate data set.
As for B33, the activity is 2 grade 0-9 final product.

As for B34, the activity came out at 2 grade 0-9 final product.

Regarding B35, the activity was determined as 4 grade 0-9 final product.

Regarding B36, the activity stood at 2 grade 0-9 final product.
